Molecular target: human RNF128 (GRAIL) extracellular domain (human) (UniProt Q8TEB7)
Assay: SPR; Biacore T100; biotinylated ECD (ligand) captured on a streptavidin (SA) series S chip, ~100-200 RU; non-biotinylated VHH as analyte in HBS-P+ buffer, twofold dilutions from 500 nM (RNF128 E2, RNF130 D1) or 1000 nM (RNF43 C8); injection 60 s at 30 ul/min, dissociation 240 s; regeneration 1 x 10 sec glycine pH 2.5; 1:1 Langmuir model or equilibrium

human RNF128 (GRAIL) extracellular domain (human), sequence (Q8TEB7 39-428): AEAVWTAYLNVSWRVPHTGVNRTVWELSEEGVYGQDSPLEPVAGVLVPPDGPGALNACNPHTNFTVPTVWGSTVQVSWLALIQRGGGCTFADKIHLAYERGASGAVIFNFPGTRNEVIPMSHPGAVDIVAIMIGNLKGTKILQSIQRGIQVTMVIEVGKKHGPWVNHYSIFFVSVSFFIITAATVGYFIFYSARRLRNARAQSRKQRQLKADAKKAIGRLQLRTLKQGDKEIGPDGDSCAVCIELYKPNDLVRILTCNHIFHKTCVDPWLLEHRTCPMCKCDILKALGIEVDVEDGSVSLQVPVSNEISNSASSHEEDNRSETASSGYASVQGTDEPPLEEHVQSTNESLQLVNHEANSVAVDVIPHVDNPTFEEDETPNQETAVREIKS

B1: RNF128-E2 nanobody (VHH)
VHH: QVQLQESGGGLVQAGGSLRLSCAASGSISGGKGMGWYRQAPGKEREFVAAIGSGAITYYADSVKGRFTISRDNAKNTVYLQMNSLKPEDTAVYYCAVYTTALDEYPYWGQGTQVTVSS
  Kd: 10 nM
